One assay concerns the target T1, HemKΔ80 (Leptospira biflexa, UniProt A5JUR4).
T1 construct: gene LEPBI_I1423; soluble cytoplasmic catalytic region lacking first 80 residues (periplasmic and transmembrane); N-terminal His-tag cut by TEV; E. coli Rosetta-gami(DE3)
T1 sequence (A5JUR4 81-295): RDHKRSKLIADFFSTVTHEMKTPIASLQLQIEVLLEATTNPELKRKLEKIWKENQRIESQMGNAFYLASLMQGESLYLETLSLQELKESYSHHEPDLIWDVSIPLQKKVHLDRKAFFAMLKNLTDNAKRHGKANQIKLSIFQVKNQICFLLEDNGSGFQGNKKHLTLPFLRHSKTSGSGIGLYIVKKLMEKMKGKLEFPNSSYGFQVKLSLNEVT
As to the kind of experiment: autophosphorylation, PhosTag-SDS-PAGE. The class given is biochemical. The note with it: 5 mM ATP, 10 mM MgCl2; phosphoryl transfer to HemK H98.

Assay [1] addresses phosphorylated HemRFL (full-length HemR, phosphorylated) (Leptospira biflexa). Put plainly: SEC; 600 uM HemRREC or HemRFL incubated with 5 mM acetyl phosphate, 10 mM MgCl2; dimeric phosphorylated form separated from monomeric non-phosphorylated form on Superdex 10/300 75 prep. A general note: SEC sorts molecules by how far they enter the pores of the column.
For assay [2], the target named is phosphorylated HemRREC (receiver domain of HemR, phosphorylated) (Leptospira biflexa). The description is as above.

For `Nc1ncnc2c1ncn2[C@@H]1O[C@H](COP(=O)(O)OP(=O)(O)OP(=O)(O)O)[C@@H](O)[C@H]1O` [ATP], at HemKΔ80, the “autophosphorylation, PhosTag-SDS-PAGE” value is listed as “possesses ATP-dependent autokinase activity (Fig 1A)”. What is called stoichiometry N is a count of units in the complex or per binding partner. On to “phosphorylated HemRFL (full-length HemR, phosphorylated) (natural protein)”, for which the stoichiometry N in assay [1] came to 2.

Compound “phosphorylated HemRREC (receiver domain of HemR, phosphorylated) (domain or fragment)” came in with a stoichiometry N in assay [2] of 2.

Source of the values: PMC11426443, “Signal-sensing triggers the shutdown of HemKR, regulating heme and iron metabolism in the spirochete Leptospira biflexa” (PLOS ONE, 2024).
